Laboratory results published in US20250154268A1 (NONA BIOSCIENCES SUZHOU, published 2025).
Changes are numbered by the printed parent chain. Names may count otherwise. Read-outs that look alike come from different tables or passages of the source.

B1: PR008016 (antibody, human IgG1, kappa, V domains shown)
VH: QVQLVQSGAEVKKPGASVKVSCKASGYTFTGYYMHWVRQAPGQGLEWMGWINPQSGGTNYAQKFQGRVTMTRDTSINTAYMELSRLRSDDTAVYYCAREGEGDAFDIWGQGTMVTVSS
VL: DFQMTQSPSTLSASVGDRVTITCRASQSISSWLAWYQQKPGKAPKLLIYEASSLKSGVPSRFSGSESGTEFTLTISSLQPDDFATYYCHQYMSYSTFGQGTKVEIKR
notes: PTM variant of PR006931 (VH:N54Q, S60Y); human IgG1
B2: PR006927 (antibody, human IgG1, kappa, V domains shown)
VH: QVQLQESGPGLVKPSETLSLTCTVSGGSIRSYYWSWIRQPPGKGLEWIGYIYYSGSTNYNPSLKSRVTISVDTSKNQFSLKLSSVTAADTAVYYCARDILTGYSDWFFDLWGRGTLVTVSS
VL: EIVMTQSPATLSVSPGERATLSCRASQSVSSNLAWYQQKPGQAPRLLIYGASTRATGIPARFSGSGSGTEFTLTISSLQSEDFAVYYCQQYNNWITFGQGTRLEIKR
notes: Fully human recombinant IgG1, kappa; also called 113D5A1
B3: PR006930 (antibody, human IgG1, kappa, V domains shown)
VH: EVQLLESGGGLVQPGGSLRLSCAASEFTFSSYAMSWVRQAPGKGLEWVSTISGSGGNTYYADSVEGRFTISRDNSKNTLYLQMNSLRAEDTAVYYCAKEAYSSSWYEYFQHWGQGTLVTVSS
VL: EIVMTQSPATLSVSPGERATLSCRASQSVSDTLAWYQQKPGQAPRLLIYGASTRATGIPARFSGSGSGTEFTLTISSLQSEDFAVYYCQQYNYWPLTFGGGTKVEIRR
notes: Fully human recombinant IgG1, kappa; also called 170H1E12
B4: PR006932 (antibody, human IgG1, kappa, V domains shown)
VH: QVQLVQSGAEVKKPGASLKVSCKASGYTFTGYYMHWVRQAPGQGLEWMGWINSNSGDKRYAQKFQGRVTVTRDTSISTAYMELSRLRSDDTAVYYCAREGAGDAFDFWGQGTMVIVSS
VL: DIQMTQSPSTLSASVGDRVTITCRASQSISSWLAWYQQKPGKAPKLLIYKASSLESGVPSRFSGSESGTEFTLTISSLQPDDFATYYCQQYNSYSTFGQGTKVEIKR
notes: Fully human recombinant IgG1, kappa; also called 184B11A4
B5: PR006122 (antibody, human IgG1, kappa, V domains shown)
VH: QVQLVESGGGVVQPGRSLRLSCAASGFTFSSYYMHWVRQAPGKGLEWVAVIWYDGSNKYYADSVKGRFTISRDNSKNTLYLQMNSLRAEDTAVYYCAGAGKGELPFDYWGQGTLVTVSS
VL: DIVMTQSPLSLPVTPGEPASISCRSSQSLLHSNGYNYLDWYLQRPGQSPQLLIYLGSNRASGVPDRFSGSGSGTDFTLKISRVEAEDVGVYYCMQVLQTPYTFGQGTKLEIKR
notes: Fully human recombinant IgG1, kappa; also called 189F2G11
B6: PR007181 (antibody, human IgG1, kappa, V domains shown)
VH: QVQLQESGPGLVKPSGTLSLTCAVSGGSISSSNWWSWVRQSPGKGLEWIGEIYHSGSTNYNPSLKSRVTISVDKSKNQFSLKLSSVTAADTAVYYCARDRLVAVAGIFDYWGQGTLVTVSS
VL: EIVMTQSPATLSVSPGERATFSCRASQTVSSDLAWYQQKPGQAPRLLIYGASTRATGIPARFSGSGSGTEFTLTISSLQSEDFAFYYCQQSNDWPYTFGQGTKLEIKR
notes: Fully human recombinant IgG1, kappa; also called 111C1D7
B7: PR006928 (antibody, human IgG1, kappa, V domains shown)
VH: QVQLVQSGGGVVQPGRSLRLSCAASGFTFSNYDMHWVRQAPGKGLEWVAVIWYDGINKHYTDSVKGRFTMSRDNFKNTLHLQMNSLRAEDTAIYYCAREGAGDAFDIWGQGTMVTVSS
VL: DIQMTQSPSTLSASVGDRVTITCRASQSFDNWLAWYQQKPGKAPKLLIYKASSLESGVPSRFSGSGSGTEFTLTISSLQPDDFATYYCQQYNSYSTFGQGTRLEIKR
notes: Fully human recombinant IgG1, kappa; also called 150G7E2
B8: PR006984 (antibody, human IgG1, kappa, V domains shown)
VH: QVHLVESGGGVVQPGRSLRLSCAASGFTFSKYDMHWVRQAPGKGLEWVAVVWFDGINKSYIDSVRGRFTISRDNSKSTLYLQMNSLRDDDTAVYYCAREGVGDAFDIWGQGAMVTVSS
VL: B7 VL with F29I, D30S, N31S, G66E, S76T, D81N
notes: Fully human recombinant IgG1, kappa; also called 180F6E8

Assays:
[1] = molecular target: T1, cynomolgus monkey CD25 (cynomolgus monkey, UniProt H6WS54 22-272); experiment: flow cytometry, HEK293-cynoCD25 cells
T1 construct: whole, on cells; also called cynoCD25
T1 sequence: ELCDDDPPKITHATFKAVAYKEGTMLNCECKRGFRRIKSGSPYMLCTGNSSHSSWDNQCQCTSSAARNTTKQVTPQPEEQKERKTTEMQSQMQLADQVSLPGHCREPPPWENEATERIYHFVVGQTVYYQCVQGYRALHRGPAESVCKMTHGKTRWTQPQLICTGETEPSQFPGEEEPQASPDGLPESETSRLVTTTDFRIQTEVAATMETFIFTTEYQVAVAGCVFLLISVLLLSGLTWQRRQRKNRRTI
Protocol: (§1) Briefly, the CHOK1-huCD25 cells and HEK293-cynoCD25 cells were digested, the SU-DHL-1 cells, Karpas299 cells, Treg cells and Teff cells were collected, and the cells were resuspended in PBS containing 2% BSA. The cells were adjusted to a cell density of 1×10⁶ cells/mL, respectively. […] The cells were incubated at 4° C. for 1 hour in the dark. After the incubation, the cells were rinsed twice by adding pre-chilled PBS containing 2% BSA at 100 μL/well, and centrifuged at 500 g at 4° C. for 5 minutes, and the supernatant was discarded. […] The cells were washed twice by adding pre-chilled PBS containing 2% BSA at 100 μL/well, and centrifuged at 500 g at 4° C. for 5 minutes, and the supernatant was discarded. Finally, the cells were resuspended in pre-chilled PBS containing 2% BSA at 200 μL/well, and the fluorescence signal values were read using a BD CantoII flow cytometer.

[2] = molecular target: T2, human CD25 (human, UniProt P01589 22-272); experiment: flow cytometry, SU-DHL-1 cells
T2 construct: whole, on cells; Always presented on cells; also called huCD25; IL2Rα
T2 sequence (looked up): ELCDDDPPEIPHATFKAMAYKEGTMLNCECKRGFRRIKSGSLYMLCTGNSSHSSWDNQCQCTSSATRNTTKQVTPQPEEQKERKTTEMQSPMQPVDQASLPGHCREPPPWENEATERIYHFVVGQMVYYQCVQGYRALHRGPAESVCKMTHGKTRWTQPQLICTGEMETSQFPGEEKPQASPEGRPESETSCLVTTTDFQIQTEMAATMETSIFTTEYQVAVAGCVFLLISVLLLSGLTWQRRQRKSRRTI
Protocol: as §1

[3] = molecular target: T2, human CD25; experiment: flow cytometry, Karpas299 cells
[4] = molecular target: T2, human CD25; experiment: flow cytometry, Karpas299 cells; remark: listed apart in the source
Protocol: as §1

[5] = molecular target: T2, human CD25; experiment: flow cytometry, SU-DHL-1 cells; remark: listed apart in the source
Protocol: as §1

[6] = molecular target: T1, cynomolgus monkey CD25; experiment: flow cytometry, HEK293-cynoCD25 cells; remark: listed apart in the source
Protocol: as §1

[7] = molecular target: T2, human CD25; experiment: flow cytometry, SU-DHL-1 cells; remark: listed apart in the source
Protocol: as §1

[8] = molecular target: T2, human CD25; experiment: flow cytometry, Karpas299 cells; remark: listed apart in the source

Row | Binder | EC50 [4] | Maximum MFI [4] | EC50 [5] | Maximum MFI [5] | EC50 [6] | Maximum MFI [6] | EC50 [7] | Maximum MFI [7] | EC50 [8] | Maximum MFI [8] | other results
1 | B1 | – | – | – | – | – | – | – | – | – | – | EC50 [1]: 2.25 nM; Maximum MFI [1]: 27900 MFI; EC50 [2]: 4.02 nM; Maximum MFI [2]: 34500 MFI; EC50 [3]: 40 nM; Maximum MFI [3]: 8600 MFI
2 | B2 | 20.3 nM | 10000 MFI | 4.68 nM | 27300 MFI | 17.5 nM | 90100 MFI | – | – | – | – | –
3 | B3 | 2.12 nM | 16400 MFI | 2.2 nM | 32000 MFI | 3.25 nM | 146000 MFI | – | – | – | – | –
4 | B4 | 2.91 nM | 12000 MFI | 3.51 nM | 34400 MFI | 3.92 nM | 151000 MFI | – | – | – | – | –
5 | B5 | 1.21 nM | 18300 MFI | 1.53 nM | 43900 MFI | 1.63 nM | 82000 MFI | – | – | – | – | –
6 | B6 | – | – | – | – | – | – | 1.68 nM | 32500 MFI | 5.81 nM | 10200 MFI | –
7 | B7 | – | – | – | – | – | – | 1.85 nM | 34700 MFI | 20 nM | 10600 MFI | –
8 | B8 | – | – | – | – | – | – | 6 nM | 35300 MFI | 55 nM | 8720 MFI | –
